According to patent EP1257175B1:

Tests used:
Assay in all cases: cell-based or functional assay
[1] = molecular target: protease derived from Aspergillus sp. CBS 102448
[2] = molecular target: protease derived from Fusarium oxysporum IFO 4471 (Fusarium oxysporum IFO 4471)
[3] = molecular target: Sub.Novo(Y217L), mutant of subtilisin from Bacillus amyloliquefaciens (Bacillus amyloliquefaciens) (UniProt P00782)
[4] = molecular target: SAVINASE, subtilisin derived from Bacillus clausii (previously Bacillus lentus NCIB 10309) (Bacillus clausii (previously Bacillus lentus NCIB 10309)) (UniProt P29600)
[5] = molecular target: protease derived from Bacillus alcalophilus NCIMB 10438 (Bacillus alcalophilus NCIMB 10438)
[6] = molecular target: protease derived from Bacillus sp. NCIMB 40484 (Bacillus sp. NCIMB 40484)
[7] = molecular target: protease derived from Acremonium chrysogenum ATCC 48272 (Acremonium chrysogenum ATCC 48272)
[8] = molecular target: Sub.Novo, subtilisin from Bacillus amyloliquefaciens (Bacillus amyloliquefaciens) (UniProt P00782)
[9] = molecular target: protease derived from Paecilomyces lilacinus CBS 102449 (Paecilomyces lilacinus CBS 102449)

Streptomyces Subtilisin Inhibitor (SSI) (from UniProt P01006 32-144)
Residual activity (%) [1]: 0.1%
Residual activity (%) [2]: 0.1%
Residual activity (%) [3]: 0%
Residual activity (%) [4]: 0%
Residual activity (%) [5]: 0%
Residual activity (%) [6]: 4.3%
Residual activity (%) [7]: 0.1%
Residual activity (%) [8]: 0.1%
Residual activity (%) [9]: 0.1%
